Assay results: article PMC3716865

Columns and labels:
[1] = target: Intracellular part of Medicago truncatula Cytokinin Receptor 1 (MtCRE1′) (Medicago truncatula); assay: SEC
[2] = target: Intracellular part of Medicago truncatula Cytokinin Receptor 1 (MtCRE1′) (Medicago truncatula); assay: dynamic light scattering

“Intracellular part of Medicago truncatula Cytokinin Receptor 1 (MtCRE1′) (domain or fragment)” showed a stoichiometry N [1] of 2 and a stoichiometry N [2] of 2.
